Experimental data published in patent EP4806467A2.

Assays:
[1] = biological target: ADAM9 on human tumour cells (LS174T, HepG2, Calu-3) (human) (UniProt Q13443); experiment: flow cytometry on HepG2 cells, negative control, 250 nM
[2] = biological target: ADAM9 on human tumour cells (LS174T, HepG2, Calu-3) (human) (UniProt Q13443); experiment: flow cytometry on LS174T cells, negative control, 250 nM
[3] = biological target: ADAM9 on human tumour cells (LS174T, HepG2, Calu-3) (human) (UniProt Q13443); experiment: flow cytometry on HepG2 cells, negative control, 1000 nM
[4] = biological target: ADAM9 on human tumour cells (LS174T, HepG2, Calu-3) (human) (UniProt Q13443); experiment: flow cytometry on HepG2 cells, negative control, 62.5 nM
[5] = biological target: ADAM9 on human tumour cells (LS174T, HepG2, Calu-3) (human) (UniProt Q13443); experiment: flow cytometry on LS174T cells, negative control, 1000 nM
[6] = biological target: ADAM9 on human tumour cells (LS174T, HepG2, Calu-3) (human) (UniProt Q13443); experiment: flow cytometry on LS174T cells, negative control, 62.5 nM
[7] = biological target: ADAM9 on human tumour cells (LS174T, HepG2, Calu-3) (human) (UniProt Q13443); experiment: flow cytometry on HepG2 cells, negative control, 15.625 nM
[8] = biological target: ADAM9 on human tumour cells (LS174T, HepG2, Calu-3) (human) (UniProt Q13443); experiment: flow cytometry on LS174T cells, negative control, 15.625 nM
[9] = biological target: ADAM9 on human tumour cells (LS174T, HepG2, Calu-3) (human) (UniProt Q13443); experiment: flow cytometry on HepG2 cells, negative control, 0.000238 nM
[10] = biological target: ADAM9 on human tumour cells (LS174T, HepG2, Calu-3) (human) (UniProt Q13443); experiment: flow cytometry on HepG2 cells, negative control, 0.000954 nM
[11] = biological target: ADAM9 on human tumour cells (LS174T, HepG2, Calu-3) (human) (UniProt Q13443); experiment: flow cytometry on HepG2 cells, negative control, 0.003815 nM
[12] = biological target: ADAM9 on human tumour cells (LS174T, HepG2, Calu-3) (human) (UniProt Q13443); experiment: flow cytometry on HepG2 cells, negative control, 0.015259 nM
[13] = biological target: ADAM9 on human tumour cells (LS174T, HepG2, Calu-3) (human) (UniProt Q13443); experiment: flow cytometry on HepG2 cells, negative control, 0.061035 nM
[14] = biological target: ADAM9 on human tumour cells (LS174T, HepG2, Calu-3) (human) (UniProt Q13443); experiment: flow cytometry on HepG2 cells, negative control, 0.244141 nM
[15] = biological target: ADAM9 on human tumour cells (LS174T, HepG2, Calu-3) (human) (UniProt Q13443); experiment: flow cytometry on HepG2 cells, negative control, 0.976563 nM
[16] = biological target: ADAM9 on human tumour cells (LS174T, HepG2, Calu-3) (human) (UniProt Q13443); experiment: flow cytometry on HepG2 cells, negative control, 3.906250 nM
[17] = biological target: ADAM9 on human tumour cells (LS174T, HepG2, Calu-3) (human) (UniProt Q13443); experiment: flow cytometry on LS174T cells, negative control, 0.000954 nM
[18] = biological target: ADAM9 on human tumour cells (LS174T, HepG2, Calu-3) (human) (UniProt Q13443); experiment: flow cytometry on LS174T cells, negative control, 0.003815 nM
[19] = biological target: ADAM9 on human tumour cells (LS174T, HepG2, Calu-3) (human) (UniProt Q13443); experiment: flow cytometry on LS174T cells, negative control, 0.015259 nM
[20] = biological target: ADAM9 on human tumour cells (LS174T, HepG2, Calu-3) (human) (UniProt Q13443); experiment: flow cytometry on LS174T cells, negative control, 0.061035 nM
[21] = biological target: ADAM9 on human tumour cells (LS174T, HepG2, Calu-3) (human) (UniProt Q13443); experiment: flow cytometry on LS174T cells, negative control, 0.244141 nM
[22] = biological target: ADAM9 on human tumour cells (LS174T, HepG2, Calu-3) (human) (UniProt Q13443); experiment: flow cytometry on LS174T cells, negative control, 0.976563 nM
[23] = biological target: ADAM9 on human tumour cells (LS174T, HepG2, Calu-3) (human) (UniProt Q13443); experiment: flow cytometry on LS174T cells, negative control, 3.906250 nM
[24] = biological target: ADAM9 on human tumour cells (LS174T, HepG2, Calu-3) (human) (UniProt Q13443); experiment: flow cytometry on HepG2 cells, 250 nM
[25] = biological target: ADAM9 on human tumour cells (LS174T, HepG2, Calu-3) (human) (UniProt Q13443); experiment: flow cytometry on HepG2 cells, 1000 nM
[26] = biological target: ADAM9 on human tumour cells (LS174T, HepG2, Calu-3) (human) (UniProt Q13443); experiment: flow cytometry on HepG2 cells, 62.5 nM
[27] = biological target: ADAM9 on human tumour cells (LS174T, HepG2, Calu-3) (human) (UniProt Q13443); experiment: flow cytometry on HepG2 cells, 15.625 nM
[28] = biological target: ADAM9 on human tumour cells (LS174T, HepG2, Calu-3) (human) (UniProt Q13443); experiment: flow cytometry on HepG2 cells, 0.000238 nM
[29] = biological target: ADAM9 on human tumour cells (LS174T, HepG2, Calu-3) (human) (UniProt Q13443); experiment: flow cytometry on HepG2 cells, 0.000954 nM
[30] = biological target: ADAM9 on human tumour cells (LS174T, HepG2, Calu-3) (human) (UniProt Q13443); experiment: flow cytometry on HepG2 cells, 0.003815 nM
[31] = biological target: ADAM9 on human tumour cells (LS174T, HepG2, Calu-3) (human) (UniProt Q13443); experiment: flow cytometry on HepG2 cells, 0.015259 nM
[32] = biological target: ADAM9 on human tumour cells (LS174T, HepG2, Calu-3) (human) (UniProt Q13443); experiment: flow cytometry on HepG2 cells, 0.061035 nM
[33] = biological target: ADAM9 on human tumour cells (LS174T, HepG2, Calu-3) (human) (UniProt Q13443); experiment: flow cytometry on HepG2 cells, 0.244141 nM
[34] = biological target: ADAM9 on human tumour cells (LS174T, HepG2, Calu-3) (human) (UniProt Q13443); experiment: flow cytometry on HepG2 cells, 0.976563 nM
[35] = biological target: ADAM9 on human tumour cells (LS174T, HepG2, Calu-3) (human) (UniProt Q13443); experiment: flow cytometry on HepG2 cells, 3.906250 nM
[36] = biological target: ADAM9 on human tumour cells (LS174T, HepG2, Calu-3) (human) (UniProt Q13443); experiment: flow cytometry on LS174T cells, 250 nM
[37] = biological target: ADAM9 on human tumour cells (LS174T, HepG2, Calu-3) (human) (UniProt Q13443); experiment: flow cytometry on LS174T cells, 1000 nM
[38] = biological target: ADAM9 on human tumour cells (LS174T, HepG2, Calu-3) (human) (UniProt Q13443); experiment: flow cytometry on LS174T cells, 62.5 nM
[39] = biological target: ADAM9 on human tumour cells (LS174T, HepG2, Calu-3) (human) (UniProt Q13443); experiment: flow cytometry on LS174T cells, 15.625 nM
[40] = biological target: ADAM9 on human tumour cells (LS174T, HepG2, Calu-3) (human) (UniProt Q13443); experiment: flow cytometry on LS174T cells, 0.000954 nM
[41] = biological target: ADAM9 on human tumour cells (LS174T, HepG2, Calu-3) (human) (UniProt Q13443); experiment: flow cytometry on LS174T cells, 0.003815 nM
[42] = biological target: ADAM9 on human tumour cells (LS174T, HepG2, Calu-3) (human) (UniProt Q13443); experiment: flow cytometry on LS174T cells, 0.015259 nM
[43] = biological target: ADAM9 on human tumour cells (LS174T, HepG2, Calu-3) (human) (UniProt Q13443); experiment: flow cytometry on LS174T cells, 0.061035 nM
[44] = biological target: ADAM9 on human tumour cells (LS174T, HepG2, Calu-3) (human) (UniProt Q13443); experiment: flow cytometry on LS174T cells, 0.244141 nM
[45] = biological target: ADAM9 on human tumour cells (LS174T, HepG2, Calu-3) (human) (UniProt Q13443); experiment: flow cytometry on LS174T cells, 0.976563 nM
[46] = biological target: ADAM9 on human tumour cells (LS174T, HepG2, Calu-3) (human) (UniProt Q13443); experiment: flow cytometry on LS174T cells, 3.906250 nM

ADAM9 on human tumour cells (LS174T, HepG2, Calu-3) (human), sequence (Q13443 29-819): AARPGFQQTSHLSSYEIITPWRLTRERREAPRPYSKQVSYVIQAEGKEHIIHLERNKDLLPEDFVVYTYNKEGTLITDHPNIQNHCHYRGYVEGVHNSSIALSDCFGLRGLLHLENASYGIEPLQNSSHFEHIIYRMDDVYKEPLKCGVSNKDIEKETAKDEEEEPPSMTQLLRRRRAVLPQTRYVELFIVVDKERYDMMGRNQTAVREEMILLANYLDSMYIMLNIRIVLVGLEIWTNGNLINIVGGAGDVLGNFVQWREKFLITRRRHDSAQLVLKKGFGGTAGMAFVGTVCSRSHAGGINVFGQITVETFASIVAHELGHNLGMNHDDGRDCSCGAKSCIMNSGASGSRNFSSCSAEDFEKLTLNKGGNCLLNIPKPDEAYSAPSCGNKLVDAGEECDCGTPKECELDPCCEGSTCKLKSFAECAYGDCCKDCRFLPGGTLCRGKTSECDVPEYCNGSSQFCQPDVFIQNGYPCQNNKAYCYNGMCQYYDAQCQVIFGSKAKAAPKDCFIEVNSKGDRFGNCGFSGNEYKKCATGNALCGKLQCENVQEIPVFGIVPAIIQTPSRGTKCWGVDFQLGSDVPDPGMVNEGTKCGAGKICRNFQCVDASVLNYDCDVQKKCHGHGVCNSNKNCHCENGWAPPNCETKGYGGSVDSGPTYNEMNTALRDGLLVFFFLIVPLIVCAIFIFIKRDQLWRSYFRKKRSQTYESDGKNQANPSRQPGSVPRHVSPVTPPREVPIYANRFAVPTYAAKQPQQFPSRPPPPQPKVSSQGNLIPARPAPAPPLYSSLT

**Q.** What does the source list for “anti-HIV human IgG antibody (iso-IgG1, produced by WuXi AppTec)”?
**A.** Mean fluorescence intensity (MFI) [1]: 389 MFI; Mean fluorescence intensity [2]: 269 MFI; Mean fluorescence intensity (MFI) [3]: 690 MFI; Mean fluorescence intensity (MFI) [4]: 386 MFI; Mean fluorescence intensity [5]: 368 MFI; Mean fluorescence intensity [6]: 229 MFI; Mean fluorescence intensity (MFI) [7]: 364 MFI; Mean fluorescence intensity [8]: 209 MFI; Mean fluorescence intensity (MFI) [9]: 361 MFI; Mean fluorescence intensity (MFI) [10]: 365 MFI; Mean fluorescence intensity (MFI) [11]: 349 MFI; Mean fluorescence intensity (MFI) [12]: 371 MFI; Mean fluorescence intensity (MFI) [13]: 377 MFI; Mean fluorescence intensity (MFI) [14]: 363 MFI; Mean fluorescence intensity (MFI) [15]: 360 MFI; Mean fluorescence intensity (MFI) [16]: 361 MFI; Mean fluorescence intensity [17]: 220 MFI; Mean fluorescence intensity [18]: 254 MFI; Mean fluorescence intensity [19]: 213 MFI; Mean fluorescence intensity [20]: 202 MFI; Mean fluorescence intensity [21]: 208 MFI; Mean fluorescence intensity [22]: 212 MFI; Mean fluorescence intensity [23]: 203 MFI

B1: Ab16-X1 (antibody, human IgG1, kappa, V domains shown)
VH: QVQLQQPGTEVVKPGASVKLSCKASGFTFPLYWMHWVRQRPGRGLEWIGRIIPIFGHTKYNEKFKNKATLTADESSSTAYMELRSLTSDDSAVYYCARGGYYYYPREGFLDYWGQGTSVTVSS
VL: DIVMTQSPASLSVSPGERASISCRSSQSVDYSGDSYMNWYQQKPGQSPRLLIYAASDRESGVPDRFSGSGSGTDFTLKISRVEEEDAGTYYCQQSREDPFTFGQGTKVDIKR
modifications: linker-payload X1 (camptothecin derivative) conjugated after TCEP reduction; DAR p = 7.8 for the whole antibody; positions not given
**Q.** Which Mean fluorescence intensity (MFI) [24] does the source give for B1 here?
**A.** 16600 MFI

**Q.** And the Mean fluorescence intensity (MFI) [25]?
**A.** 17400 MFI

**Q.** And the Mean fluorescence intensity (MFI) [26]?
**A.** 3290 MFI

**Q.** What about the Mean fluorescence intensity (MFI) [27] of the same molecule?
**A.** 2960 MFI

**Q.** And the Mean fluorescence intensity (MFI) [28]?
**A.** 370 MFI

**Q.** And the Mean fluorescence intensity (MFI) [29]?
**A.** 376 MFI

**Q.** What about the Mean fluorescence intensity (MFI) [30] of the same molecule?
**A.** 396 MFI

**Q.** What about the Mean fluorescence intensity (MFI) [31] of the same molecule?
**A.** 451 MFI

**Q.** And the Mean fluorescence intensity (MFI) [32]?
**A.** 623 MFI

**Q.** What about the Mean fluorescence intensity (MFI) [33] of the same molecule?
**A.** 1090 MFI

**Q.** What about the Mean fluorescence intensity (MFI) [34] of the same molecule?
**A.** 1790 MFI

**Q.** And the Mean fluorescence intensity (MFI) [35]?
**A.** 1780 MFI

B2: Ab16-X2 (antibody, human IgG1, kappa, V domains shown)
VH: B1 VH
VL: B1 VL
modifications: linker-payload X2 (camptothecin derivative) conjugated after TCEP reduction; DAR p = 7.9 for the whole antibody; positions not given
**Q.** What does the source list for B2?
**A.** Mean fluorescence intensity [36]: 2130 MFI; Mean fluorescence intensity [37]: 1130 MFI; Mean fluorescence intensity [38]: 2160 MFI; Mean fluorescence intensity [39]: 2400 MFI; Mean fluorescence intensity [40]: 223 MFI; Mean fluorescence intensity [41]: 219 MFI; Mean fluorescence intensity [42]: 268 MFI; Mean fluorescence intensity [43]: 447 MFI; Mean fluorescence intensity [44]: 954 MFI; Mean fluorescence intensity [45]: 1960 MFI; Mean fluorescence intensity [46]: 2380 MFI
